B1: IL-10: human recombinant IL-10 (Sigma) (protein, UniProt P22301 19-178, looked up)
Interleukin-10: SPGQGTQSENSCTHFPGNLPNMLRDLRDAFSRVKTFFQMKDQLDNLLLKESLLEDFKGYLGCQALSEMIQFYLEEVMPQAENQDPDIKAHVNSLGENLKTLRLRLRRCHRFLPCENKSKAVEQVKNAFNKLQEKGIYKAMSEFDIFINYIEAYMTMKIRN

Tests used:
[1] = tested on: tibialis anterior muscles of mdx mice; assay: Intramuscular transfer of dystrophin plasmid pTG11025, dystrophin immunohistochemistry; assay type: in vivo, mouse; details: pTG11025 i.m. with adjuvant (IL-10 0.1 μg, DMSO 10% final, G-actin 10 μg), notexin 3 days before, 7 days after injection; mean +/- sem
Experimental: (§1) Plasmids are prepared according to Bischoff et al. (Analytical Biochemistry 254 (1997), 69-81). The tested interleukin-10s were mixed with the plasmid preparation (pTG11033: CMV promoter, β-globin intron, luciferase cassette; pTG11025: CMV promoter, β-globin intron, dystrophin cassette; both diluted in 0.9% NaCl), prior to intramuscular injection. 25 μg of plasmid are injected per muscle in 5 to 10 week-old C57BI/10 or mdx mice. The 2 tibialis anterior (right and left) muscles were injected (each muscle was considered as a sample, which means number of samples per condition=2×number of mice per condition).
(§2) One week after injection of the composition, mice were killed and the tibialis anterior muscles were retrieved and frozen. Based on the injected vector, either luciferase activity was determined in muscle extracts, or dystrophin expression was evaluated by immunohistochemistry.
Muscle samples were frozen in liquid nitrogen-cooled isopentane and stored at −80° C. […]
In a second experiment mdx mice were 3 times injected intramuscularly with pTG11025 (dystrophin) plus DMSO, G-actin and IL-10 after notexin-induced muscle regeneration. Plasmid-adjuvant injections were repeated 3 times in raw on a daily basis and dystrophin expression (immunohistochemistry) was evaluated 7 days after the last injection. […]

[2] = tested on: tibialis anterior muscles of C57BL/10 mice; assay: Intramuscular transfection of luciferase plasmid pTG11033, luciferase activity of injected muscles; assay type: in vivo, mouse; details: IL-10 0.01 and 0.1 μg + 25 μg pTG11033 per muscle, dose-dependent
Experimental: as §1, §2
Luciferase activity was quantified using a conventional measurement kit (Luciferase Assay System, Promega). […] Luciferase activity was expressed as number of RLU emitted per minute.
Proteins were measured on 10 μl samples using a VCA Protein Assay Kit (Pierce). […]
One week after injection of the vectors, the mice were killed and the tibialis anterior muscles were retrieved and frozen. Luciferase activity was determined on muscle extracts. […]

| Molecule | Number of dystrophin-positive fibers per cryosection [1] | increase of luciferase expression [2] |
| --- | --- | --- |
| C[S+](C)[O-] [DMSO, dimethylsulfoxide] | 37.8 +/− 5.5 | – |
| B1 | 21.7 +/− 1.9 | 3 factor |

From patent publication US6528312B1, “Use of G-actin for improving transfection of a polynucleotide into a cell” (Transgene S.A., priority 1998, dated 2003)
